Consider 1 molecule from patent publication US20200069778A1, “PLANT-EXPRESSED COCAINE HYDROLASE VARIANTS OF BUTYRYLCHOL[…] METHODS OF REDUCING COCAINE-PRIMED REINSTATEMENT” (priority 2018, published 2020).

This series can be described thus: Radiometric (−)-cocaine hydrolysis assay. Type of series: biochemical. The settings on record: 25° C.

B1: WT pBChE (protein, UniProt P06276 29-602, looked up)
Cholinesterase: EDDIIIATKNGKVRGMNLTVFGGTVTAFLGIPYAQPPLGRLRFKKPQSLTKWSDIWNATKYANSCCQNIDQSFPGFHGSEMWNPNTDLSEDCLYLNVWIPAPKPKNATVLIWIYGGGFQTGTSSLHVYDGKFLARVERVIVVSMNYRVGALGFLALPGNPEAPGNMGLFDQQLALQWVQKNIAAFGGNPKSVTLFGESAGAASVSLHLLSPGSHSLFTRAILQSGSFNAPWAVTSLYEARNRTLNLAKLTGCSRENETEIIKCLRNKDPQEILLNEAFVVPYGTPLSVNFGPTVDGDFLTDMPDILLELGQFKKTQILVGVNKDEGTAFLVYGAPGFSKDNNSIITRKEFQEGLKIFFPGVSEFGKESILFHYTDWVDDQRPENYREALGDVVGDYNFICPALEFTKKFSEWGNNAFFYYFEHRSSKLPWPEWMGVMHGYEIEFVFGLPLERRDNYTKAEEILSRSIVKRWANFAKYGNPNETQNNSTSWPVFKSTEQKYLTLNTESTRIMTKLRAQQCRFWTSFFPKVLEMTGNIDEAEWEWKAGFHRWNNYMMDWKNQFNDYTSKKESCVGL
modifications: plant-expressed
In general, Km refers to the substrate concentration at which the rate is half of its maximum. Regarding B1, the Km turned out to be 2.9 µM and the “kcat against (−)-cocaine” value was found to be 0.0433 s⁻¹.
